Experimental data reported in publication PMC10700546, “Atg18 oligomer organization in assembled tubes and on lipid membrane scaffolds” (Nature Communications, 2023).
Substitutions are numbered along the chain they refer to. Names may count otherwise. Blank lines part the entries; values can stand above or below the binder they belong to.

Legend:
[1] = target: T1, Autophagy-related protein 18 (Atg18), wildtype (Saccharomyces cerevisiae), P43601; test: single-particle cryo-EM, 2D classification; 18 uM soluble Atg18 in high-salt buffer (50 mM TRIS, 500 mM NaCl, 10 mM KPO4, 1 mM DTT, pH 7.5); monomer and dimer classes; settings: remark: other sources report otherwise
T1 chain: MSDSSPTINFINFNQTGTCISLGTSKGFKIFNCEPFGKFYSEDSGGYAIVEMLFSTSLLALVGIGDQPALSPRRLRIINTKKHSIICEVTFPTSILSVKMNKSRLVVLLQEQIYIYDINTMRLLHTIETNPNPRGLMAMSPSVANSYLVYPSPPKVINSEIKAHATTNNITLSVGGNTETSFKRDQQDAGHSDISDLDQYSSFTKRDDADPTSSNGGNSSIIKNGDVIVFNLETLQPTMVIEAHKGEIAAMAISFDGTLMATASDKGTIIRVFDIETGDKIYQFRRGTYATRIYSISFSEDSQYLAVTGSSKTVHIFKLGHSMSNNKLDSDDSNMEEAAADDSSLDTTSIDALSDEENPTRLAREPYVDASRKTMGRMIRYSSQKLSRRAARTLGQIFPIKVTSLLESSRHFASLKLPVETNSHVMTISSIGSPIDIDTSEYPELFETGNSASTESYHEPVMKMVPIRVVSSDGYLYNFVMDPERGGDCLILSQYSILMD

[2] = target: the molecule itself; test: cryo-EM structure; helical reconstruction of Atg18 tubes; 20 uM tube solution in tube buffer (20 mM HEPES, 100 mM KAc, 1 mM DTT, pH 7.2); self-assembly into a helical lattice

stoichiometry N [1]: 2
B1: Autophagy-related protein 18 (Atg18), wildtype, P43601 1-500 (natural protein)
chain: T1 chain

B2: Atg18-P72A/R73A (natural protein, Saccharomyces cerevisiae, UniProt P43601 1-500, looked up)
chain: T1 chain with P72A, R73A
notes: Atg18, Saccharomyces cerevisiae, Uniprot ID P43601, with P72A and R73A; Same construct as the wild type apart from the two substitutions; also called Atg18-PR72AA; PR72AA; source: E. coli BL21(DE3), purified (Ni-NTA, TEV cleavage, second Ni-NTA, gel filtration); not shown: 6xHis, N-terminal, cleaved
binding result [2]: binds
